The values that follow come from patent publication US20240425609A1.

The target in one assay is human CD22 (human) (UniProt P20273). Put plainly: cell-based or functional assay.
Another assay concerns the target human CD3 (human). The assay can be described thus: cell-based or functional assay.
In the next assay the target is mouse PD1 (mouse) (UniProt Q02242). Put plainly: cell-based or functional assay.
Another assay addresses mouse CD20 (mouse) (UniProt P19437). Put plainly: flow cytometry on MC38/mCD20 cells.

human CD22 (human), sequence (P20273 20-847): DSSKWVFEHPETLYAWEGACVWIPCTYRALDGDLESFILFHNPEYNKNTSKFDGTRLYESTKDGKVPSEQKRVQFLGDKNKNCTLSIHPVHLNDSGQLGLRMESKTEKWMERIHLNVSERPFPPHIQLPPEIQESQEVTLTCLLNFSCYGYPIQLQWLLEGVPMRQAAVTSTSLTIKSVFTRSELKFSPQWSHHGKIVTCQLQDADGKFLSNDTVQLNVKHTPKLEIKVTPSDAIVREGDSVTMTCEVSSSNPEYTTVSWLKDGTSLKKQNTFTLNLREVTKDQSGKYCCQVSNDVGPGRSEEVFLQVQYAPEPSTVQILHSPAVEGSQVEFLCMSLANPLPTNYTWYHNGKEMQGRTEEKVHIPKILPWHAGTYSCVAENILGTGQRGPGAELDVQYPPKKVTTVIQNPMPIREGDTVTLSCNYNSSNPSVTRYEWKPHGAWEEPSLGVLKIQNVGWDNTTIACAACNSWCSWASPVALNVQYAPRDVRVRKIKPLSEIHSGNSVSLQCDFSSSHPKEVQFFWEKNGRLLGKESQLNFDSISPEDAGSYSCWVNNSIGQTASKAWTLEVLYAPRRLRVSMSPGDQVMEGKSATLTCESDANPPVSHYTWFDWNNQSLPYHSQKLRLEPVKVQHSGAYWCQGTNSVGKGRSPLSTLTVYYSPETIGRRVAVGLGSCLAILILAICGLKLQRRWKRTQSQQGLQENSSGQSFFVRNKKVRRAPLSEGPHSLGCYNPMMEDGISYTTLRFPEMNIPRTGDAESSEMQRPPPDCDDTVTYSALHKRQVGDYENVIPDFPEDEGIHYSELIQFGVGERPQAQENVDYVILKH
mouse CD20 (mouse), sequence (P19437 whole entry): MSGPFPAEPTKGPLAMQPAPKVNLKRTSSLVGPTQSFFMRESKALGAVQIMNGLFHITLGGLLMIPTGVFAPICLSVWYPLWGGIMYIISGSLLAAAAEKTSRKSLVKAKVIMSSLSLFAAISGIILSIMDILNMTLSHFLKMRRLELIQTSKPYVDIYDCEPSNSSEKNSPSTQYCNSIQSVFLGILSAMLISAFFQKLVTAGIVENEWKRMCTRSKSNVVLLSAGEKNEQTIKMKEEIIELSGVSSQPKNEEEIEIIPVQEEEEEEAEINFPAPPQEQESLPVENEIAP
mouse PD1 (mouse), sequence (Q02242 25-288): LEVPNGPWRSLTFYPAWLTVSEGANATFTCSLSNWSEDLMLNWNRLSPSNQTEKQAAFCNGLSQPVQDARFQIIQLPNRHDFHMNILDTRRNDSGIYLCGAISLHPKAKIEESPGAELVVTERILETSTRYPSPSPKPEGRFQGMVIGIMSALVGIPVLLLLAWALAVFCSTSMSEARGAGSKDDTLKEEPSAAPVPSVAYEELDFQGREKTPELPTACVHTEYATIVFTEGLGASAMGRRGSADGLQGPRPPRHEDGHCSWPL

In the assay with human CD22 (human), “CD3 bsAb (REGN10551) (bispecific antibody)” gave an EC50, activation of T cell signaling (AP1-luciferase), run with 1 nM CD3 bsAb of 1150 pM and an EC50, activation of T cell signaling (AP1-luciferase), run with 2.5 nM CD3 bsAb of 627 pM. Further, in the assay with human CD3 (human), the EC50, activation of T cell signaling (AP1-luciferase), run with 1 nM CD3 bsAb amounted to 1150 pM and the EC50, activation of T cell signaling (AP1-luciferase), run with 2.5 nM CD3 bsAb was 627 pM.

The substance REGN1932 (hIgG1 control) (antibody) came in with a Max % inhibition, AP1-luciferase bioassay, 2.5 nM CD3 bsAb in the assay with mouse PD1 (mouse) of 3%.

Consider Single arm mPDL1 WT-Fc (Fc fusion), for which the Max MFI with mouse CD20 (mouse) amounted to 94.9 MFI.
